Laboratory results taken from PMC4654454 (ACS chemical biology, 2015).
Residue numbers refer to the chain shown, from its start. One block for each binder: values may come before it. No end group written: not given here.

Legend:
[1] = target: T1, human Origin Recognition Complex subunit 1 BAH domain, wild type (human, UniProt Q13415 45-171); assay: ITC
T1 sequence (looked up): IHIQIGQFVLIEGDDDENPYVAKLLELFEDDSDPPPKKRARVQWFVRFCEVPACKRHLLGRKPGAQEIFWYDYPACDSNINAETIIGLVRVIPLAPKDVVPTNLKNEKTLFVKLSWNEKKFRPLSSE

[2] = target: T2, human Origin Recognition Complex subunit 1 BAH domain, R105Q mutant (human, UniProt Q13415 45-171, R105Q); assay: ITC
T2 sequence (looked up): T1 sequence (looked up) with R61Q

[3] = target: T3, hORC1 BAH domain, wild type (human, UniProt Q13415 45-171); assay: EMSA
T3 sequence: T1 sequence (looked up)

Kd [1]: 8.85 µM | Kd [2]: 8.33 µM
Binder: GAKRHRCVLRDNY (not fully specified (residue 7)) [histone H4(14–25)Kc20me2 peptide]

B1: 14-bp DNA duplex (dsDNA)
DNA 1: GGAGGCCTCCTGCT
DNA 2: AGCAGGAGGCCTCC
binding result [3]: binds
